Blank lines part the entries; values can stand above or below the binder they belong to.
B1: recombinant human OX40L (extracellular domain, R&D Systems) (ligand)
chain: QVSHRYPRIQSIKVQFTEYKKEKGFILTSQKEDEIMKVQNNSVIINCDGFYLISLKGYFSQEVNISLHYQKDEEPLFQLKKVRSVNSLMVASLTYKDKVYLNVTTDNTSLDDFHVNGGELILIHQNPGEFCVL
notes: also called hOX40L; rec. hOX40L

What was measured:
[1] = molecular target: T1, OX40L01E07; assay: competition ELISA: fixed concentration of OX40L01E07 pre-incubated with a concentration series of soluble hOX40L, then added to biotinylated hOX40L captured on neutravidin; bound Nanobody detected with rabbit anti-VHH antiserum and HRP goat anti-rabbit IgG, OD450nm
T1 construct: monovalent Nanobody from E. coli; not shown: C-terminal c-myc and His6 tag
Procedure: (§1) The binding of OX40L blocking Nanobodies to other TNF family members was tested in a competition ELISA.
(§2) Detection was done using sTMB (SDT Reagents, Baesweiler, Germany), the reaction was stopped with 1M HCl and absorbance was determined at 450 nm.

[2] = molecular target: T2, biotinylated hOX40L (R&D Systems, biotinylated in house) (human, UniProt P23510 51-183, biotinylated with Sulfo-NHS-LC-Biotin, sites not stated); assay: hOX40L/hOX40 AlphaScreen, assay 3, native
T2 construct: same bought protein as m10, biotinylated; also called biotinylated OX40L
T2 sequence: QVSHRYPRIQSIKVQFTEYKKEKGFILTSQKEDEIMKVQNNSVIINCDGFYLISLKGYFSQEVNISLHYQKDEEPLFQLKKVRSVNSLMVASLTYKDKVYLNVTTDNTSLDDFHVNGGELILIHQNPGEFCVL
Procedure: (§3) Next, streptavidin donor beads were added and incubated for an additional 1 hour. Fluorescence was measured by reading plates on the EnVision Multilabel Plate Reader using an excitation wavelength of 680 nm and an emission wavelength of 520 nm.
(§4) In the TSA assay, Nanobodies were diluted to a concentration of 0.2 mg/ml and melting temperature (Tm) was determined at different pH by stepwise increase in temperature in presence of Sypro Orange, a dye that binds to […] residues that become exposed upon unfolding of the protein, using the Lightcycler (Roche) for detection. […] In SEC analysis, the Nanobodies were analyzed on a Phenomenex matrix to allow detection of multimers, aggregates or ‘stickyness’.

[3] = molecular target: T2, biotinylated hOX40L (R&D Systems, …); assay: hOX40L/hOX40 AlphaScreen, assay 3, heated at Tm+10 C
Procedure: as §3, §4

[4] = molecular target: B1; assay: cell-based or functional assay
[5] = molecular target: T2, biotinylated hOX40L (R&D Systems, …); assay: hOX40L/hOX40 AlphaScreen, assay 2, native; assay 2, native (not Tm + 10° C.)
[6] = molecular target: T2, biotinylated hOX40L (R&D Systems, …); assay: hOX40L/hOX40 AlphaScreen, assay 2, heated at Tm+10 C
Procedure: as §3, §4

[7] = molecular target: T2, biotinylated hOX40L (R&D Systems, …); assay: hOX40L/hOX40 AlphaScreen
[8] = molecular target: B1; assay: SPR, after second injection of buffer HBS-EP+
Procedure: (§5) In addition, it was investigated to what extend the 7 anti-OX40L Nanobodies have a different or identical or overlapping epitope. Standard conditions were as described above. […] 1300 RU. A dual injection was performed at 10 μl/min for 2 min, starting with 500 nM of the first Nanobody, followed by 500 nM of the second Nanobody. After 10 min dissociation, regeneration of the surface was performed by injection of 50 mM NaOH for 5-20 sec at 100 μl/min.

[9] = molecular target: T3, hCD40L (human, UniProt P29965 113-261); assay: competition ELISA on neutravidin captured biotinylated hOX40L
T3 sequence (looked up): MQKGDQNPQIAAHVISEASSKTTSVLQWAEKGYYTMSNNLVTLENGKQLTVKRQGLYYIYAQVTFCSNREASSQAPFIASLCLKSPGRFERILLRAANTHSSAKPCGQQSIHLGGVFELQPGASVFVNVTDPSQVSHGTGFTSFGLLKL
Procedure: as §1, §2

[10] = molecular target: hTNF-alpha (human, UniProt P01375 77-233); assay: as above
Procedure: as §1, §2

[11] = molecular target: T4, hCD30L (human, UniProt P32971 63-234); assay: as above
T4 sequence (looked up): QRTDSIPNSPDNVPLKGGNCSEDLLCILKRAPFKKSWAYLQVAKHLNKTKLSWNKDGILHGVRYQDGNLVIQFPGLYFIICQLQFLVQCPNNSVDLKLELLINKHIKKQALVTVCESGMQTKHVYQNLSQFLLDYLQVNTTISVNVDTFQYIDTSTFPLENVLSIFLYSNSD
Procedure: as §1, §2

[12] = molecular target: T5, human Receptor Activator for Nuclear Factor kappa B Ligand (human, UniProt O14788 143-317, limits assumed); assay: as above
T5 construct: also called hRANKL; RANKL
T5 sequence (looked up): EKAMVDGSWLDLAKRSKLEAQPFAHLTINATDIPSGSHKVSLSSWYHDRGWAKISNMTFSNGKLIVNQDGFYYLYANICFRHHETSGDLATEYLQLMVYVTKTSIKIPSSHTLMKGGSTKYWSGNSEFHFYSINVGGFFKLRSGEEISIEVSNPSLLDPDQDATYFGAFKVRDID
Procedure: as §1, §2

[13] = molecular target: T6, human tumor necrosis factor-related apoptosis inducing ligand (human, UniProt P50591 114-281); assay: as above
T6 construct: also called hTRAIL; TRAIL
Procedure: as §1, §2

[14] = molecular target: T2, biotinylated hOX40L (R&D Systems, …); assay: AlphaScreen, 120 pM biotinylated hOX40L + 0.2 nM hOX40/Fc
Procedure: as §3

[15] = molecular target: B1; assay: SPR, second injection after competitor OX40L19A07
Procedure: as §5

[16] = molecular target: T7, full length human OX40L expressed on CHO cells (human, UniProt P23510 1-183); assay: cell-based or functional assay
T7 sequence: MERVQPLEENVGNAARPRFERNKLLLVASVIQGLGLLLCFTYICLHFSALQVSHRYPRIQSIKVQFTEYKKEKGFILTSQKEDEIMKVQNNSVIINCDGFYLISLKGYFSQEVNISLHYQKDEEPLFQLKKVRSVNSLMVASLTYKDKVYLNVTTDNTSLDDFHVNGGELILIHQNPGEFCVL

[17] = molecular target: T7, full length human OX40L expressed on …; assay: competition FACS with hOX40/Fc on CHO-hOX40L
Procedure: The competition FACS assay was performed as described in example 2.

[18] = molecular target: T7, full length human OX40L expressed on …; assay: competition FACS, 3.1 nM hOX40/Fc on hOX40L expressing cells
[19] = molecular target: B1; assay: SPR, second injection after competitor OX40L15B07
Procedure: as §5

[20] = molecular target: B1; assay: SPR, second injection after competitor OX40L19D08
Procedure: as §5

[21] = molecular target: T7, full length human OX40L expressed on …; assay: FACS binding to CHO cells, anti-c-myc detection
Procedure: (§6) Transfection of CHO K1 with the respective expression plasmid DNA and selection of clones with high expression levels was performed as described in Example 1. Binding of the Nanobodies to the cell surface expressed OX40L was assessed by FACS analysis of cells as described below.
(§7) After washing bound Nanobodies were detected in FACSArray™ using mouse anti-c-myc and PE conjugated goat anti-mouse IgG.

[22] = molecular target: T8, cynomolgus OX40L expressed on CHO cells (cynomolgus monkey, UniProt P23510 1-183 (human entry)); assay: FACS binding to CHO cells, anti-c-myc detection
T8 construct: also called cynoOX40L; CHO-cynoOX40L
T8 chain: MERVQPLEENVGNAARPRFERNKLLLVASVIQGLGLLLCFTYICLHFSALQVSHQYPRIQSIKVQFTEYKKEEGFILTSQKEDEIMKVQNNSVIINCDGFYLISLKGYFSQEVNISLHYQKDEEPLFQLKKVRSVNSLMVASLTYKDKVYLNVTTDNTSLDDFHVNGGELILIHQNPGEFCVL
Procedure: as §6, §7

[23] = molecular target: B1; assay: SPR, second injection after competitor OX40L01E07
Procedure: as §5

[24] = molecular target: B1; assay: SPR, second injection after competitor OX40L01B11
Procedure: as §5

[25] = molecular target: B1; assay: SPR, second injection after competitor OX40L18E09
Procedure: as §5

[26] = molecular target: B1; assay: SPR, second injection after competitor OX40L01E10
Procedure: as §5

[27] = molecular target: T2, biotinylated hOX40L (R&D Systems, …); assay: AlphaScreen, 31 pM biotinylated hOX40L + 80 pM OX40/Fc
Procedure: as §3

Chain of hTNF-alpha (P01375 77-233 limits assumed): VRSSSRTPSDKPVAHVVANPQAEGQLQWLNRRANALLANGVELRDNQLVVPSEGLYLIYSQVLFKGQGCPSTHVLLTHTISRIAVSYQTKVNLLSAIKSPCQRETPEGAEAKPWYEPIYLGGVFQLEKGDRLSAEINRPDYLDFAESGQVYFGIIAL
T6 sequence (P50591 114-281 limits assumed): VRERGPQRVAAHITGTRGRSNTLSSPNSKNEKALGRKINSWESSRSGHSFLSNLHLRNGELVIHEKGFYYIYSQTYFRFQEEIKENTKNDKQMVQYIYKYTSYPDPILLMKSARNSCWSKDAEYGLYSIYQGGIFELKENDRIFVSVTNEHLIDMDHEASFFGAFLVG
T1 sequence (VHH, as listed by the source): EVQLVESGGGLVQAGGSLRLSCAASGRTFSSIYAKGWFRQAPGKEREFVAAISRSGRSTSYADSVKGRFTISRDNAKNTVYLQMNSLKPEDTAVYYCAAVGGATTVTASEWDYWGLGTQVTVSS

Binder: B1
- IC50 (read off the curve) [1]: ~0.8 nM

B2: OX40L056 (VHH, not shown: small tags and cut ends)
VHH: DVQLVESGGGLVQPGGSLRLSCAASRSIGRLDRMGWYRHRPGKPRELVATITGGSSINYADSVKGRFTISRDNSKNTVYLQMNSLRPEDTAVYYCNFNKYVTSRDTWGQGTLVTVSS
- IC50 [2]: 1.12 nM
- IC50 [3]: 1.12 nM
- IC50, T cell assay with rec. hOX40L [4]: 135 nM
- IC50 [5]: 1.12 nM
- IC50 [6]: 1.12 nM

B5: OX40L19D08 (VHH)
VHH: EVQLVESGGGLVQAGASLRLSCAASGRRFISNYAMGWFRQAPGQERAFVAAISRSGSITYYTDSVKGRFSISRDYAKSTVYLQMDNLKPEDTAVYYCAADGGAVRDLTTNLPDYWGRGTQVTVSS
notes: monovalent Nanobody from E. coli; not shown: C-terminal c-myc and His6 tag
- Binding Level sample 2 (RU) [8]: 184 RU
- Binding Level sample 2 - sample 1 (RU) [8]: -38 RU
- binding result [9]: no binding (tested: starting from 100 fold molar excess)
- binding result [10]: no binding (tested: starting from 100 fold molar excess)
- binding result [11]: no binding (tested: starting from 100 fold molar excess)
- binding result [12]: no binding (tested: starting from 100 fold molar excess)
- binding result [13]: no binding (tested: starting from 100 fold molar excess)
- IC50 [14]: 0.285 nM
- Binding Level sample 2 (RU) [15]: 224 RU
- Binding Level sample 2 - sample 1 (RU) [15]: 47 RU
- IC50, IL4 production, T-cell activation assay, donor 1 [16]: 90 nM
- IC50, IL4 production, T-cell activation assay, donor 2 [16]: 132 nM
- IC50, IL4 production, T-cell activation assay, donor 3 [16]: 36 nM
- IC50, IL4 production, T-cell activation assay, donor 4 [16]: 96 nM
- IC50 [17]: 4 nM
- IC50 [18]: 3.31 nM
- Binding Level sample 2 (RU) [19]: 239 RU
- Binding Level sample 2 - sample 1 (RU) [19]: 42 RU
- Binding Level sample 2 (RU) [20]: 236 RU
- Binding Level sample 2 - sample 1 (RU) [20]: 7 RU
- EC50 [21]: 2.85 nM
- EC50 [22]: 3.4 nM
- Binding Level sample 2 (RU) [23]: 187 RU
- Binding Level sample 2 - sample 1 (RU) [23]: 3 RU
- Binding Level sample 2 (RU) [24]: 468 RU
- Binding Level sample 2 - sample 1 (RU) [24]: 159 RU
- Binding Level sample 2 (RU) [25]: 224 RU
- Binding Level sample 2 - sample 1 (RU) [25]: 33 RU
- Binding Level sample 2 (RU) [26]: 275 RU
- Binding Level sample 2 - sample 1 (RU) [26]: 49 RU
- IC50 [27]: 0.133 nM

More lines, now with the values ahead:

- fold drop in potency compared with the parental Nanobody OX40L15B07 [7]: ~6 fold
B3: OX40L083 (VHH, not shown: small tags and cut ends)
VHH: EVQLVESGGGLVQPGGSLRLSCAASRSIGRLDRMGWYRHRPGKPRELVATITGGSSINYGDSVKGRFTISIDNSKNTVYLQMNSLRPEDTAVYYCNFNKYVTSRDTWGQGTLVTVSS

- IC50 [2]: 0.14 nM
- fold decrease in potency compared with the parental Nanobody OX40L15B07 [7]: ~2 fold
- IC50 [3]: 0.14 nM
B4: OX40L082 (VHH, not shown: small tags and cut ends)
VHH: EVQLVESGGGLVQPGGSLRLSCAASRSIGRLDRMGWYRHRPGEPRELVATITGGSSINYGDSVKGRFTISIDNSKNTVYLQMNSLRPEDTAVYYCNFNKYVTSRDTWGQGTLVTVSS
